From PMC4525488, “Structure-based Mechanistic Insights into Terminal Amide Synthase in Nosiheptide-Represented Thiopeptides Biosynthesis” (Scientific Reports, 2015)

B1: truncated NosA_(1-111) variant (domain or fragment, UniProt C6FX40 1-111, looked up)
chain: MTEHPAQQLYCTVVLWDLSRSAATVASLRAYLRDHAVDAYTTVPGLRQKTWISSTGPEGEQWGAVYLWDSPEAAYGRPPGVSKVVELIGYRPTERRYYSVEAATEGPAAAA
notes: NosA, terminal amide synthase of nosiheptide biosynthesis

Experiments:
[1] = target: the molecule itself; test: SEC; Superdex 75 10/300 GL, 50 mM Tris-HCl pH 7.5, 50 mM NaCl; retention compared with gel filtration markers of 44 kDa and 17 kDa
[2] = target: the molecule itself; test: crystal structure; Se-Met NosA_(1-111), sitting-drop vapor diffusion at 293 K; 0.02 M magnesium chloride hexahydrate, 0.1 M HEPES pH 6.0-9.0, 22% w/v polyacrylic acid 5100; SAD, 2.40 Å
[3] = target: B1; test: ITC; ITC-200, 20 mM Tris-HCl, 150 mM NaCl, pH 7.0, 298 K; who was in the syringe is not told; conditions: both partners purified

Binder | stoichiometry N [1] | other results
full-length NosA (wild type) (enzyme, UniProt C6FX40 1-151, looked up, NosA, terminal amide synthase of nosiheptide biosynthesis; Cloned in pET28a by NheI and HindIII; also called WT NosA; WT full-length NosA) MTEHPAQQLYCTVVLWDLSRSAATVASLRAYLRDHAVDAYTTVPGLRQKTWISSTGPEGEQWGAVYLWDSPEAAYGRPPGVSKVVELIGYRPTERRYYSVEAATEGPAAAAAPFGKGLGLAFDPASPEPLTRPQEFVPPGADAFIPSRPPA | 2 | –
selenomethionine NosA_(1-111) (domain or fragment, UniProt C6FX40 1-111, looked up, selenomethionine in place of methionine (one Met residue at the N-terminal sequence), NosA, terminal amide synthase of nosiheptide biosynthesis; the crystallised form) MTEHPAQQLYCTVVLWDLSRSAATVASLRAYLRDHAVDAYTTVPGLRQKTWISSTGPEGEQWGAVYLWDSPEAAYGRPPGVSKVVELIGYRPTERRYYSVEAATEGPAAAA | – | binding result [2]: binds
B1 | 2 | –
APFGKGLGLAFDPASPEPLTRPQEFVPPGADAFIPSRPPA (peptide, UniProt C6FX40 112-151, looked up, NosA, terminal amide synthase of nosiheptide biosynthesis; Cloned in the pSMT3 vector; source: 15N-labelled in M9 medium for NMR) [C-terminal NosA_(112-151) peptide] | – | Kd [3]: 2400 ± 1200 µM
